The text below walks through data of US20210115087A1 (UNIVERSITY OF ROCHESTER, published 2021).

For assay [1], the target named is T1, GST-Shh (recombinant GST-fused human Sonic Hedgehog) (human, UniProt Q15465 24-197).
T1 construct: Expressed in E. coli BL21(DE3), Ni-NTA purified, immobilized on microtiter plates; also called GST-fused Shh; not shown: glutathione-S-transferase (GST) containing a poly-histidine tag, from expression vector pET42b (Novagen); N-terminal fus
As to the kind of experiment: plate immunoassay: immobilized GST-Shh, FLAG-tagged peptide titrated, HRP anti-FLAG antibody, A450. How it is done: To measure the binding affinity of the peptides for Shh, an in vitro assay was established in which recombinant GST-fused Shh is immobilized on microtiter plates and then exposed to the FLAG-tagged peptide at varying concentrations. The Shh-bound peptide is then quantified colorimetrically (λ₄₅₀) using a horseradish peroxidase (HRP)-conjugated anti-FLAG antibody.
Hh protein binding assay. Shh binding activity/affinity of the linear and cyclic peptides was measured using the immunoassay outlined in FIG. 4. For these experiments, GST-Shh was immobilized on 96-well microtiter plates (100 μL of 4 μM GST-Shh solution in PBS buffer), followed by blocking with bovine serum albumin. After washing, each well was incubated with 100 μL of purified FLAG-fused peptide at varying concentrations for 1 hour at room temperature. […] After washing, 100 μL of 2.2 mM o-phenylenediamine dihydrochloride, 4.2 mM urea hydrogen peroxide, 100 mM dibasic sodium phosphate and 50 mM sodium citrate, pH 5.0 was added to each well, followed by measurement of the absorbance at 450 nm using a Tecan Infinite 1000 plate reader. Equilibrium dissociation constants (KD) were determined by fitting the dose-response curves (FIG. 5) to a 1:1 binding isotherm equation via non-linear regression using SigmaPlot.

The target in assay [2] is T1, GST-Shh (recombinant GST-fused human …). As to the kind of experiment: plate assay: immobilized GST-Shh, biotinylated peptide, HRP-streptavidin. How it is done:
(§1) Hh protein binding assay. Shh binding activity/affinity of the linear and cyclic peptides was measured using the immunoassay outlined in FIG. 4. For these experiments, GST-Shh was immobilized on 96-well microtiter plates (100 μL of 4 μM GST-Shh solution in PBS buffer), followed by blocking with bovine serum albumin. After washing, each well was incubated with 100 μL of purified FLAG-fused peptide at varying concentrations for 1 hour at room temperature. After washing, each well was added with 100 μL of 1:2500 dilution of HRP-conjugate mouse anti-FLAG polyclonal antibody (Sigma-Aldrich) for 1 hour at room temperature. After washing, 100 μL of 2.2 mM o-phenylenediamine dihydrochloride, 4.2 mM urea hydrogen peroxide, 100 mM dibasic sodium phosphate and 50 mM sodium citrate, pH 5.0 was added to each well, followed by measurement of the absorbance at 450 nm using a Tecan Infinite 1000 plate reader. Equilibrium dissociation constants (KD) were determined by fitting the dose-response curves (FIG. 5) to a 1:1 binding isotherm equation via non-linear regression using SigmaPlot.
For assessing the Shh binding affinity of the cysteine-crosslinked peptides described in Example 4, biotinylated variants of these peptides were prepared by introducing a biotin moiety to the N-terminal peptide of the peptide followed by a tetrapeptide (Gly-Ser-Gly-Ser) (SEQ ID NO: 72) spacer (i.e., peptides Biot-m5-s1 through Biot-m5-s10). The biotinylated peptides were tested in a modified variant of the Shh binding assay described in Example 1, where HRP-conjugated streptavidin is used instead of the HRP-conjugated anti-FLAG antibody.

Assay [3] has the same target. In words: plate immunoassay: immobilized GST-Shh, HRP anti-FLAG antibody. How it is done: as §1
(§2) Next, all of the yet unmodified positions within the HL2-m3 sequence (relative to HL2-m1) were randomized by site-saturation mutagenesis. These positions correspond to residue Thr1, Leu2, Asp3, Glu6, Glu7, Met8, Asp12 of the HL2-m3 sequence. […]

Assay [4] deals with T2, GST-Dhh (recombinant GST-fused human Desert Hedgehog) (human, UniProt O43323 23-198).
T2 construct: not shown: glutathione-S-transferase (GST) containing a poly-histidine tag, from expression vector pET42b (Novagen); N-terminal fus
In words: plate immunoassay: immobilized GST-Dhh against GST-Shh, HRP anti-FLAG antibody. As for the experimental part: as §1
Hedgehog analog selectivity. KD values for FLAG-HL2-m5 binding to Ihh and Dhh were determined using the colorimetric immunoassay described earlier but using GST-Ihh and GST-Dhh-coated plates, respectively. […] Mean values and standard deviations were calculated from experiments performed at least in triplicate.

For assay [5], the target named is T1, GST-Shh (recombinant GST-fused human …). As to the kind of experiment: plate immunoassay: immobilized GST-Shh, purified FLAG-tagged peptide titrated, HRP anti-FLAG antibody. As for the experimental part: as §1, §2

*1 amine or outer side, *2 acyl side, *3 side chain or, on linkers, in order; H or OH if unused. Bridges are numbered along the chain shown (N, C = ends). Where no end group is shown, it is not given here. [ ]: non-standard residue; d: D form. The star is where a group is joined. O2beY = O-alkylated Tyr from O-2-bromoethyl-tyrosine, O-CH2CH2- thioether-linked to Cys, O=C([C@H](Cc1ccc(OCC[*:3])cc1)N[*:1])[*:2]; L‑5 = linker -CH2S(CH2)2SCH2-, C(CSC[*:2])SC[*:1]; Biotin = O=C1N[C@H]2[C@H](CS[C@H]2CCCCC(=O)*)N1; L‑9 = linker -CH2SCH2CH=CHCH2SCH2-; L‑6 = linker -CH2S(CH2)3SCH2-; L‑4 = linker -CH2SCH2SCH2-

B1: FLAG-HL2-pep (peptide)
peptide: MDYKDDDDKGSGSTLDDMEEMDGLSD
notes: also called linear L2-derived peptide
As a reminder, the Kd is the concentration at which binding is half-saturated. Consider B1, for which the Kd in assay [1] worked out at 20 µM.

B2: BIOT-M5-S7 (as labelled in the KD table of Example 5) (peptide)
peptide: GSGSTLSWCEAMDMCTD
modifications: N-terminal biotin; Cys5 and Cys11 crosslinked, by the printed MW 2121.41 with one of the isomeric linkers L-10, L-11, L-12 (drawings; probably L-11); C-terminal amide
notes: it fits the xylene-type linkers
Turning to B2, the equilibrium dissociation constant (Kd) in assay [2] is 9.2 µM.

B3: FLAG-HL2-m5 (peptide)
peptide: MDYKDDDDKGSGSTLSW[O2beY]EAMDMCTD-OH
modifications: bridge 18-24; not fully specified (bridges)
For B3, the “fold higher binding affinity for Shh compared to FLAG-HL2-pep” value in assay [3] was about 120 fold. Also, the “fold lower affinity than for Shh” value in assay [4] came out at 2 fold. Also, the Kd in assay [5] was 0.17 µM.

B4: Biot-m5-s2 (peptide)
peptide: Biotin-GSGSTLSWCEAMDMCTD-NH2
modifications: linker 9-15 via L‑4
Regarding B4, the Kd in assay [2] stood at 3.4 µM.

B5: BIOT-M5-S5 (as labelled in the KD table of Example 5) (peptide)
peptide: Biotin-GSGSTLSWCEAMDMCTD-NH2
modifications: linker 9-15 via L‑9
Regarding B5, the Kd in assay [2] is 1.1 µM.

B6: Biot-m5-s1 (peptide)
peptide: Biotin-GSGSTLSWCEAMDMCTD-NH2
modifications: disulfide 9-15
B6: the dissociation constant Kd in assay [2] came out at 1.7 µM.

B7: Biot-m5-s4 (peptide)
peptide: Biotin-GSGSTLSWCEAMDMCTD-NH2
modifications: linker 9-15 via L‑6
Regarding B7, the dissociation constant (Kd) in assay [2] is 6.4 µM.

B8: Biot-m5-s3 (peptide)
peptide: Biotin-GSGSTLSWCEAMDMCTD-NH2
modifications: linker 9-15 via L‑5
As to B8, in assay [2], the Kd is 5.9 µM.
